{
  "source": "patent US20070212679",
  "proteins": {"B1": {"name": "His6-Parkin (full-length human Parkin fused to an N-terminal histidine tag, from E. coli, refolded) (protein)", "chain": "IYICTIIIIISSGLVPRGSGMKETAAAKFERQHMDSPDLGTDDDDKAMADIGSAATMIVFVRFNSSHGFPVEVDSDTSIFQLKEVVAKRQGVPADQLRVIFAGKELRNDWTVQNCDLDQQSIVHIVQRPWRKGQEMNATGGDDPRNAAGGCEREPQSLTRVDLSSSVLPGDSVGLAVILHTDSRKDSPPAGSPAGRSIYNSFYVYCKGPCQRVQPGKLRVQCSTCRQATLTLTQGPSCWDDVLIPNRMSGECQSPHCPGTSAEFFFKCGAHPTSDKETPVALHLIATNSRNITCITCTDVRSPVLVFQCNSRHVICLDCFHLYCVTRLNDRQFVHDPQLGYSLPCVAGCPNSLIKELHHFRILGEEQYNRYQQYGAEECVLQMGGVLCPRPGCGAGLLPEPDQRKVTCEGGNGLGCGFAFCRECKEAYHEGECSAVFEASGTTTQAYRVDERAAEQARWEAASKETIKKTTKPCPRCHVPVEKNGGCMHMKCPQPQCRLEWCWNCGCEWNRVCMGDHWFDV"}},
  "biological_target": "T1, human GST-E1 (Boston Biochem), P22314",
  "T1 chain": "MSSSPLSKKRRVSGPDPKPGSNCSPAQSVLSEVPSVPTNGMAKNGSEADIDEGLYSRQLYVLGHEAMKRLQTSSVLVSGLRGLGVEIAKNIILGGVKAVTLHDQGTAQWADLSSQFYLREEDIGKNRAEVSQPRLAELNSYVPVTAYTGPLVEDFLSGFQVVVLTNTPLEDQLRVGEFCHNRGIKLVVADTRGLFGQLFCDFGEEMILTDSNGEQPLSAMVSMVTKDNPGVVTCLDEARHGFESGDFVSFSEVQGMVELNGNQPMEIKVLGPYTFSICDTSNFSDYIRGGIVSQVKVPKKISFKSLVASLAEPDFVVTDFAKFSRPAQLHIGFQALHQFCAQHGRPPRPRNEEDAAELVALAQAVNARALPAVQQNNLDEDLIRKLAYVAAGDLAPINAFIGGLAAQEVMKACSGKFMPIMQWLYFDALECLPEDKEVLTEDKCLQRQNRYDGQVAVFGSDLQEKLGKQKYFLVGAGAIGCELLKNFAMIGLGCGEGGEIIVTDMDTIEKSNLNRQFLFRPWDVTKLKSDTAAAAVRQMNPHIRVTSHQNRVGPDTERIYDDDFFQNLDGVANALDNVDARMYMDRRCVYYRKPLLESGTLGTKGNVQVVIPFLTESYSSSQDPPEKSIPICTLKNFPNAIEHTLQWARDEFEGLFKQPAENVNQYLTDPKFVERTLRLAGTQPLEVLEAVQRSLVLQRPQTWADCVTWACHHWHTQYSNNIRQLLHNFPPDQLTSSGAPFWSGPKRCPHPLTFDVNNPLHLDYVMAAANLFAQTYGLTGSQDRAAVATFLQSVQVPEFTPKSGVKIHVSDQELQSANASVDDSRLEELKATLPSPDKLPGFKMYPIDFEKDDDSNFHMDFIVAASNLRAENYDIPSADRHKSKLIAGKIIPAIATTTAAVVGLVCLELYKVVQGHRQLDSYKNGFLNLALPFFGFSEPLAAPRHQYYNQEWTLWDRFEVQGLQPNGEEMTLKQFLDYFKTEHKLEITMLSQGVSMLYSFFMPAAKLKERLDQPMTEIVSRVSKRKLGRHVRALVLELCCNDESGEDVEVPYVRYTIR",
  "data": [
    {"protein": "B1", "values": [
      {"measurement": "ubiquitination of Parkin in the absence of UbcH7 (biotin-ubiquitin detected on blot with NeutrAvidin-HRP)", "value": "some reaction product was seen in the absence of UbcH7 when Parkin was incubated with E1 and ubiquitin for 90 minutes"}
    ]}
  ]
}
